The values that follow come from patent publication CN110272489A.

For experiment [1], the target named is 人TIM-3 (recombinant antigen of the ELISA of Example 3: TIM-3-hFc captured on goat-anti-hFc, or Tim-3-his coated directly) (human) (UniProt Q8TDQ0). Nature of the experiment: ELISA of hybridoma supernatant on human TIM-3 (Example 3).
Experiment [2] deals with 狨猴(marmoset) Tim-3蛋白 (狨猴(marmoset)) (UniProt F7I881). Nature of the experiment: ELISA, against ABTIM3 as reference. (In general: ELISA stands for enzyme-linked immunosorbent assay.)

B1: mab15 (鼠源抗体) (antibody, V domains shown)
VH: EVKLVESEGGLVQPGSSMKLSCTASGFTFSDYYMTWVRQVPEKGLEWVASINYDGRNTYYLDSLKSRFIISRDNAKNILYLQMSSLKSEDTATYYCARGYYYYGSSPNYFDYWGQGTTLTVSS
VL: DIQMTQSPASLSASVGETVTITCRASENIYSYLTWYQQKQGKSPQLLVYNAKTLAEGVPSRFSGSGSGTQFSLRINSLQPEDFGNYYCQQHYGTPLTFGAGTKLELK
Turning to B1, in experiment [1], the ELISA 数值(OD450) was determined as 1.14 OD450.

B2: 人源化ab32抗体 (全人源化抗体) (antibody, human IgG4 S228P, kappa, V domains shown)
VH: EVQLVESGGGLVKPGGSLRLSCAASGFTFSDYYMTWVRQAPGKGLEWVSSINYDGRNTYYLDSLKSRFTISRDNAKNSLYLQMNSLRAEDTAVYYCARGYYYYGSSPNYFDYWGQGTLVTVSS
VL: DIQMTQSPSSLSASVGDRVTITCRASENIYSYLTWYQQKPGKAPKLLIYNAKTLAEGVPSRFSGSGSGTDFTLTISSLQPEDFATYYCQQHYGTPLTFGQGTKLEIKR
Consider B2, for which the fold stronger than the positive control molecule in experiment [2] was greater than 4 fold.
